According to paper PMC5258196 (Biochemistry, 2016):
Each block holds one molecule with its values, some of them ahead of it.

Tests used:
[1] = molecular target: GrxS14 (Arabidopsis thaliana) (UniProt Q84Y95); conditions: cited from earlier work
[2] = molecular target: T1, S. cerevisiae monothiol glutaredoxin Grx3 (S. cerevisiae, UniProt Q03835 1-250); experiment: ITC
T1 sequence (looked up): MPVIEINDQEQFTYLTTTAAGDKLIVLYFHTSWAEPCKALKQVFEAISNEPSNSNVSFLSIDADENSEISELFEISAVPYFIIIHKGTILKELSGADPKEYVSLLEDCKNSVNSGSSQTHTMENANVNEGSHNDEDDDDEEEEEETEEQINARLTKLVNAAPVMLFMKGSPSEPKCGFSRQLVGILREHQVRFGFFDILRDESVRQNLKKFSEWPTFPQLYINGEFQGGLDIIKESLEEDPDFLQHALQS

[3] = molecular target: T2, E. coli monothiol glutaredoxin Grx4 (E. coli, UniProt P0AC69 1-115); experiment: ITC
T2 sequence (looked up): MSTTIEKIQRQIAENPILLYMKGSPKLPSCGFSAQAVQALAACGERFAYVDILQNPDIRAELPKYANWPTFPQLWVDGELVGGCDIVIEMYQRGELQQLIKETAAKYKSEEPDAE

GrxS14 (Arabidopsis thaliana), sequence (Q84Y95 64-173): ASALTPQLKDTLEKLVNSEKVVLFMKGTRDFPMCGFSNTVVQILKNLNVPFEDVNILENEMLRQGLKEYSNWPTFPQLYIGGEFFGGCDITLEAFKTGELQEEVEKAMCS

Molecule: BolA1 (from UniProt Q682I1)
Kd [1]: 7 µM

B2: E. coli BolA (natural protein, UniProt P0ABE2 1-105, looked up)
chain: MMIRERIEEKLRAAFQPVFLEVVDESYRHNVPAGSESHFKVVLVSDRFTGERFLNRHRMIYSTLAEELSTTVHALALHTYTIKEWEGLQDTVFASPPCRGAGSIA
Kd [3]: 4.6 ± 0.9 µM
dH [3]: -3.1 ± 0.1 kcal/mol
stoichiometry N [3]: 0.97 ± 0.03 sites

Next, values leading:

Kd [2]: 20.8 ± 6.6 µM
dH [2]: -10.1 ± 5.4 kcal/mol
stoichiometry N [2]: 0.4 ± 0.19 sites
B1: S. cerevisiae Fra2 (natural protein, UniProt P53082 1-120, looked up)
chain: MTGERIEKVKINDEFAKSHFLTTQWRETKRQRHYKMPVTEQGLRERIESAIPQVYHIIVTDLSYGCGQSFDIVVVSDFFQGKSKLMRSRAVNKAVKEELQEIHAFSCKCYTEEEWSKIVV

Kd [3]: 3.4 ± 0.1 µM
dH [3]: -5.9 ± 0.1 kcal/mol
stoichiometry N [3]: 0.7 ± 0.01 sites
B3: E. coli BolA-like protein IbaG (natural protein, UniProt P0A9W6 1-84, looked up)
chain: MENNEIQSVLMNALSLQEVHVSGDGSHFQVIAVGELFDGMSRVKKQQTVYGPLMEYIADNRIHAVSIKAYTPAEWARDRKLNGF
